These results are taken from patent US20140255304, “TDP-43 SPECIFIC BINDING MOLECULES” (BIOGEN IDEC INTERNALTIONAL NEUROSCIENCE GMBH, published 2014).

A value given as a limit tells only on which side of the number the result lay.

In this data set the target is TDP-43 full length (residues 1-414) (Homo sapiens, UniProt Q13148 SEQ:1-414). Nature of the data set: FP; at least 30-fold higher affinity than for U12 control; 40 mM HEPES, 0.5 M KCl, 0.4 M arginine, pH 7.4, 25 C. The note with it: tags: N-terminal 6xHis-SUMO, expressed in E. coli BL21(DE3) Star; label: 5' TYE fluorophore. As for the experimental part: Equilibrium binding affinities of TDP-43 constructs for RNA were determined using fluorescence polarization. 5′TYETM fluorophore labeled RNA substrates, specific RNA (TYETM-[…]) (SEQ ID NO: 312) and RNA control (TYETM-[…]) (SEQ ID NO: 313) (integrated DNA Technologies), were incubated at a concentration of 5 nM for 30 min at 25° C. with TDP-43 (final concentrations 0 to 20 μM) in incubation buffer as indicated. Fluorescence polarization was measured with the plate reader fluorometer Envision (PerkinElmer) at each concentration of TDP-43 in a 96 well plate format with an excitation at 645 nm and emission at 665. Kds were calculated using the quadratic equation for tight binding (Morrison equation) using Sigmaplot (Systat Software Inc.). […] Stoichiometries were calculated by measuring the intercept of two straight lines, one fit using data points of the partially bound state, and the other using data points of the fully bound state.
The recombinant full-length TDP-43 was monomeric by sedimentation analysis (FIG. 8C) in buffer containing 400 mM arginine.

Chain of TDP-43 full length (residues 1-414) (Q13148 whole entry, the tested form may be a part): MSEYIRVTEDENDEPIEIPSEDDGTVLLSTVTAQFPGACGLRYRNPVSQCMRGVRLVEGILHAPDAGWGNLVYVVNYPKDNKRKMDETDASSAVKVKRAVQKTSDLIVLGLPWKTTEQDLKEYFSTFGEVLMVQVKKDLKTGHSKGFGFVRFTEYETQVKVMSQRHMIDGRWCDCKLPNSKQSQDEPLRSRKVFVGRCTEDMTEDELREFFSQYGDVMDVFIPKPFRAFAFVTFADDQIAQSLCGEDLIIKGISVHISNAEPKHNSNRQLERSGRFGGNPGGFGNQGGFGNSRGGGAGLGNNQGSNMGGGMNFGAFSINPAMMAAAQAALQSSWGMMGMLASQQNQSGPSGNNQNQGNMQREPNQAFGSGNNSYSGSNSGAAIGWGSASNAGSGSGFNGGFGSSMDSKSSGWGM

B1: (UG)6 specific RNA (ssRNA)
RNA: UGUGUGUGUGUG
Take B1: the binding signal was no less than 30 fold.
